This is an account of results in doi:10.1101/2025.06.28.662095.

Assay [1] has as its target MtSteAΔTM (M. tuberculosis SteA truncated soluble construct, residues 12-344) (Mycobacterium tuberculosis). Kind of assay: SEC-SLS.
The target is the same in assay [2]. Kind of assay: crystal structure.

In the case of “MtSteAΔTM (M. tuberculosis SteA truncated soluble construct, residues 12-344) (domain or fragment)”, the stoichiometry N in assay [1] and in assay [2] was 2 each time.

The stoichiometry N is a count of units in the complex or per binding partner.
